The values that follow come from paper PMC12464994, “Quantification of Membrane Protein Conformational Free Energy from Mutations and a Single Atom” (Journal of the American Chemical Society, 2025).

Sequences and labels used below:
B2: 6FW-EmrE^W63 (EmrE W31F/W45F/W76F labeled with 6-fluoro-tryptophan at Trp63) (natural protein, E. coli)
chain: MNPYIYLGGAILAEVIGTTLMKFSEGFTRLFPSVGTIICYCASFFLLAQTLAYIPTGIAYAIWSGVGIVLISLLSFGFFGQRLDLPAIIGMMLICAGVLIINLLSRSTPH
modifications: 6-fluoro-tryptophan at Trp63
notes: EmrE, small multidrug resistance (SMR) transporter of E. coli; only Trp63 kept of the four tryptophans; also called 6FW-labeled EmrE^W63; source: E. coli BL21(DE3), M9 medium with glyphosate and fluoro-indole, purified (amylose column, TEV cleavage, SEC in DDM)

Holding throughout (experiment): 19F NMR spectroscopy (one-dimensional spectra and 19F/19F ZZ-exchange/NOESY); proteins alone or mixed in DDM (1 h, 37 °C, 10 mM DTT) at stated molar ratios, reconstituted in 14:0-PC/6:0-PC isotropic bicelles (q = 0.33); pH 5.6; 37 °C; 1-2 mM protein; 150 mM Na2HPO4, 20 mM NaCl
In data set [1] the target is T1, EmrE^(W63, E14Q), natural abundance (E. coli, UniProt P23895 1-110, W31F | W45F | W76F | E14Q).
T1 construct: EmrE, small multidrug resistance (SMR) transporter of E. coli; EmrE^W63 background with E14Q; also called natural abundance EmrE^(W63, E14Q); source: E. coli BL21(DE3), purified (amylose column, TEV cleavage, SEC in DDM)
T1 sequence: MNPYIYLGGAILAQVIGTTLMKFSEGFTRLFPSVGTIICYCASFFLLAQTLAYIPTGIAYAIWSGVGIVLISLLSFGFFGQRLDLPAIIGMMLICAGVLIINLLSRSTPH
The following applies: both partners purified.

Data set [2] deals with T2, EmrE^(W63, L51I), natural abundance (E. coli, UniProt P23895 1-110, W31F | W45F | W76F | L51I).
T2 construct: EmrE, small multidrug resistance (SMR) transporter of E. coli; EmrE^W63 background with L51I; also called natural abundance EmrE^(W63, L51I); source: E. coli BL21(DE3), purified (amylose column, TEV cleavage, SEC in DDM)
T2 sequence: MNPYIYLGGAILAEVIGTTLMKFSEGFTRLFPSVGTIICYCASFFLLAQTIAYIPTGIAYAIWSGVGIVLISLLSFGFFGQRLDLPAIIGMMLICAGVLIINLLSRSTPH
The note with it: both partners purified.

Data set [3] concerns the molecule itself.
For data set [4], the target named is T3, EmrE^W63 (EmrE W31F/W45F/W76F), natural abundance (E. coli, UniProt P23895 1-110, W31F | W45F | W76F).
T3 construct: EmrE, small multidrug resistance (SMR) transporter of E. coli; only Trp63 kept of the four tryptophans; NMR-silent partner in the mixed (heterodimer) samples; reconstituted in 14:0-PC/6:0-PC bicelles; also called unlabeled EmrE^W63; natural abundance EmrE^W63; source: E. coli BL21(DE3), LB medium, purified (amylose column, TEV cleavage, SEC in DDM)
T3 sequence: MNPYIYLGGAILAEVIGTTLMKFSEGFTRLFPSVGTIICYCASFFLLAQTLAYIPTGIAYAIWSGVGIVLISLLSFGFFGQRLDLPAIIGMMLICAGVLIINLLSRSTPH
The note with it: both partners purified.

Data set [5] deals with B2. The note with it: both partners purified.

B1: 5FW-EmrE^W63 (EmrE W31F/W45F/W76F labeled with 5-fluoro-tryptophan at Trp63) (natural protein, E. coli)
chain: MNPYIYLGGAILAEVIGTTLMKFSEGFTRLFPSVGTIICYCASFFLLAQTLAYIPTGIAYAIWSGVGIVLISLLSFGFFGQRLDLPAIIGMMLICAGVLIINLLSRSTPH
modifications: 5-fluoro-tryptophan at Trp63
notes: EmrE, small multidrug resistance (SMR) transporter of E. coli; only Trp63 kept of the four tryptophans; also called 5FW-labeled EmrE^W63; source: E. coli BL21(DE3), M9 medium with glyphosate and fluoro-indole, purified (amylose column, TEV cleavage, SEC in DDM)
With B1, the binding result in data set [1], in data set [2], in data set [3] and in data set [4] was “binds” in each case.

With B2, the binding result in data set [3] and in data set [4] was “binds” throughout.

B3: 5FW-EmrE^(W63, E14Q) (natural protein, E. coli)
chain: MNPYIYLGGAILAQVIGTTLMKFSEGFTRLFPSVGTIICYCASFFLLAQTLAYIPTGIAYAIWSGVGIVLISLLSFGFFGQRLDLPAIIGMMLICAGVLIINLLSRSTPH
modifications: 5-fluoro-tryptophan at Trp63
notes: EmrE, small multidrug resistance (SMR) transporter of E. coli; EmrE^W63 background with E14Q; also called Gln14 mutant monomer; source: E. coli BL21(DE3), M9 medium with glyphosate and fluoro-indole, purified (amylose column, TEV cleavage, SEC in DDM)
As to B3, the binding result in data set [3] and in data set [4] was “binds” in each case.

B4: 5FW-EmrE^(W63, L51I) (natural protein, E. coli)
chain: MNPYIYLGGAILAEVIGTTLMKFSEGFTRLFPSVGTIICYCASFFLLAQTIAYIPTGIAYAIWSGVGIVLISLLSFGFFGQRLDLPAIIGMMLICAGVLIINLLSRSTPH
modifications: 5-fluoro-tryptophan at Trp63
notes: EmrE, small multidrug resistance (SMR) transporter of E. coli; EmrE^W63 background with L51I; source: E. coli BL21(DE3), M9 medium with glyphosate and fluoro-indole, purified (amylose column, TEV cleavage, SEC in DDM)
On to B4, for which the binding result in data set [3], in data set [4] and in data set [5] was “binds” each time.
